Test results published in patent publication CN113045659A (NOVOPROTEIN SCIENT INC, dated 2021).

Tests used:
[1] = biological target: T1, 重组人CD73蛋白 (human, UniProt P21589 27-547, limits assumed); assay: ELISA, recombinant human CD73 coated at 3 ug/ml
T1 construct: Coated at 3 ug/ml in the ELISA and used at 5 ug/ml in the enzyme assay; also called rhCD73
T1 sequence (looked up): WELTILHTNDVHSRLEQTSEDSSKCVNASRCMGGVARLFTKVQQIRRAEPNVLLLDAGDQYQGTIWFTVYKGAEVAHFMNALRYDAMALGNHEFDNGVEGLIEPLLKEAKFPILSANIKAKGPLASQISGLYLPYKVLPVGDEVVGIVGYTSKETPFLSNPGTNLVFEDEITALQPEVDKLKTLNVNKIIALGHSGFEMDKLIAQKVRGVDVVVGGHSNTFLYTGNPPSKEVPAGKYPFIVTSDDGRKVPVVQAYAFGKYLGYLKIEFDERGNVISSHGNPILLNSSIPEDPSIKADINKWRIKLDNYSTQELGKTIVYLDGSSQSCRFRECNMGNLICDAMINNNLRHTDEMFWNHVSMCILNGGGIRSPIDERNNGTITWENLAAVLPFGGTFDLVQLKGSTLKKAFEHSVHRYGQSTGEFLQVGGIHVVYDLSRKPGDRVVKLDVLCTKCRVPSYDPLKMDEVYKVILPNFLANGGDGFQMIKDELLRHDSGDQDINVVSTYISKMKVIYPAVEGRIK

[2] = biological target: T2, SK-OV-3细胞上的CD73 (human, UniProt P21589 27-549); assay: flow cytometry on SK-OV-3 cells, Anti-hFC-APC
T2 construct: whole, on cells; Endogenous CD73 of the human CD73-positive cell line SK-OV-3; also called 人CD73阳性细胞; SK-OV-3细胞表面的CD73
T2 sequence (looked up): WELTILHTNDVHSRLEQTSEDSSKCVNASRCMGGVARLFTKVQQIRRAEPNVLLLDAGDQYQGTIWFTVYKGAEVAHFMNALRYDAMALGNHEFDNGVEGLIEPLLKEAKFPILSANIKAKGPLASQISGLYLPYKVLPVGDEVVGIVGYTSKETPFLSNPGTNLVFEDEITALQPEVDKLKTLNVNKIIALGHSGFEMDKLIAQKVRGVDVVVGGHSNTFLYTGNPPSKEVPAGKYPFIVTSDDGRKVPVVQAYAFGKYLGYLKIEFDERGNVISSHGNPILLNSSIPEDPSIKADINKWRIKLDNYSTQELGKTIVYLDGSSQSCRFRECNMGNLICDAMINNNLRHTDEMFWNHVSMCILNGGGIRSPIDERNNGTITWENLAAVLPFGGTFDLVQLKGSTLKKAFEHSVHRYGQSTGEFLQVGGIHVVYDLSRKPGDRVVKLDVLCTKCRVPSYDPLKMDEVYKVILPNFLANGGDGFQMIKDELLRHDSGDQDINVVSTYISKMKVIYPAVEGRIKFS

B1: 137-4 (antibody, IgG1, V domains shown)
VH: QVQLVQSGAEVKKPGSSVKVSCKASGYSFTGYYIHWVRQAPGQGLEWMGRINPYNGATTYNQNFKDRVTITVDKSTSTAYMELSSLRSEDTAVYYCARFHYGAVDYWGQGTLVTVSS
VL: DIQMTQSPSSLSASVGDRVTITCKASQDINTYLTWYQQKPGKAPKTLIYRANILVDGVPSRFSGSGSGTDFTLTISSLQPEDFATYYCLQYEEFPLTFGGGTKVEIKR
notes: also called 人源化CD73抗体; CQ137人源化抗体; not shown: kappa constant region
**Q.** Which results are given for B1?
**A.** binding result [1]: binds; binding result [2]: binds

B2: 137-9 (antibody, IgG1, V domains shown)
VH: QVQLVQSGAEVKKPGSSVKVSCKASGYSFTGYYIHWVRQAPGQGLEWMGRINPYNGATTYNQNFKDRVTITVDKSTSTAYMELSSLRSEDTAVYYCARFHYGAPDLWGQGTLVTVSS
VL: DIQMTQSPSSLSASVGDRVTITCKASQDINTYLTWYQQKPGKAPKTLIYRANILVDGVPSRFSGSGSGTDFTLTISSLQPEDFATYYCLQYDAFPLTFGGGTKVEIKR
notes: as for B1
**Q.** Does B2 bind [1]?
**A.** Result: binds

**Q.** Does B2 bind [2]?
**A.** Result: binds

B3: 137-7 (antibody, IgG1, V domains shown)
VH: QVQLVQSGAEVKKPGSSVKVSCKASGYSFTGYYIHWVRQAPGQGLEWMGRINPYNGATTYNQNFKDRVTITVDKSTSTAYMELSSLRSEDTAVYYCARFHYGAPNYWGQGTLVTVSS
VL: DIQMTQSPSSLSASVGDRVTITCKASQDINTYLTWYQQKPGKAPKTLIYRANILVDGVPSRFSGSGSGTDFTLTISSLQPEDFATYYCLQYDDFPLTFGGGTKVEIKR
notes: as for B1
**Q.** Does B3 bind [1]?
**A.** Result: binds

**Q.** Does B3 bind [2]?
**A.** Result: binds

B4: 137-8 (antibody, IgG1, V domains shown)
VH: QVQLVQSGAEVKKPGSSVKVSCKASGYSFTGYYIHWVRQAPGQGLEWMGRINPYNGATTYNQNFKDRVTITVDKSTSTAYMELSSLRSEDTAVYYCARFHYGAPDFWGQGTLVTVSS
VL: DIQMTQSPSSLSASVGDRVTITCKASQDINTYLTWYQQKPGKAPKTLIYRANILVDGVPSRFSGSGSGTDFTLTISSLQPEDFATYYCLQYDQFPLTFGGGTKVEIKR
notes: as for B1
**Q.** Does B4 bind [1]?
**A.** Result: binds

**Q.** Does B4 bind [2]?
**A.** Result: binds

B5: 137-5 (antibody, IgG1, V domains shown)
VH: QVQLVQSGAEVKKPGSSVKVSCKASGYSFTGYYIHWVRQAPGQGLEWMGRINPYNGATTYNQNFKDRVTITVDKSTSTAYMELSSLRSEDTAVYYCARFHYGAADYWGQGTLVTVSS
VL: DIQMTQSPSSLSASVGDRVTITCKASQDINTYLTWYQQKPGKAPKTLIYRANILVDGVPSRFSGSGSGTDFTLTISSLQPEDFATYYCLQYNEFPLTFGGGTKVEIKR
notes: as for B1
**Q.** What does the source list for B5?
**A.** binding result [1]: binds; binding result [2]: binds

B6: 137-6 (antibody, IgG1, V domains shown)
VH: QVQLVQSGAEVKKPGSSVKVSCKASGYSFTGYYIHWVRQAPGQGLEWMGRINPYNGATTYNQNFKDRVTITVDKSTSTAYMELSSLRSEDTAVYYCARFHYGAPEYWGQGTLVTVSS
VL: DIQMTQSPSSLSASVGDRVTITCKASQDINTYLTWYQQKPGKAPKTLIYRANILVDGVPSRFSGSGSGTDFTLTISSLQPEDFATYYCLQYAEFPLTFGGGTKVEIKR
notes: as for B1
**Q.** Does B6 bind [1]?
**A.** Result: binds

**Q.** Does B6 bind [2]?
**A.** Result: binds
